Measured values as given in the RNAGym collection of RNA variant scans (doi:10.1073/pnas.2313332121).

B1: TPR t1 (parent)
chain: GACCAAUCUGCCCUCAGAGCUCGAGAACAUCUUCGGAUGCAGAGGAGGCAGGCUUCGGUGGCGCGAUAGCGCCAACGUCCUCAACCUCCAAUGCAUCCCACCACAUGAUGAUGCCUGAAGAGCCUUGGUUUUUUG

Variants of: B1
Assay: polymerase ribozyme fitness, log enrichment relative to wild type (log ratio); higher = more active; in vitro selection for triplet polymerase activity
In short: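 Frozen incubation at −7 °C formed the core of a single, triplicate in vitro selection round applied to PCR-built, transcribed mutant libraries of each subunit of a heterodimeric triplet polymerase ribozyme. Extended constructs were gel-excised, captured with streptavidin beads and amplified by RT-PCR, and input and output libraries were Illumina-sequenced with a filter of ≥10 input reads and ≥1 read per output. Fitness is the logarithm of genotype enrichment relative to wild-type enrichment, with inverse-variance-weighted replicate averaging, and the logarithm is base 2.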
For GACCAAUCUGCCCUCAGAGCUCGAGAACAUCUUCGGAUGCAGAGGAGGCAGGCUUCGGUGGCGCGAUAGCGUCAACGUCCUCAACCUCCAAUGGAUCCCACCGCAUGAUGAUUCCUGAAGAGCCUAGGUUUUUUG [C72U C94G A103G G113U U126A], the “polymerase ribozyme fitness (log ratio)” value was -5.45. With GACCAAUCUGCCCUCAGAGCUCGAGAACAUCUUCGGAUGCAGAGGAGGCAGGCUUCGGUGGCGCGAUAGCGUCAACGUCCUCAACCUCCAUUGCAUCCCUCCACAUGAUGAUGCCUGAUGAGCCUUGGUUUUUUG [C72U A91U A100U A119U] the “polymerase ribozyme fitness (log ratio)” value was -3.58. In the case of GACCAAUCUGCCCUCAGAGCUCGAGAACAUCUUCGGAUGCAGAGGAGGCAGGCUUCGGUGGCGCGAUAGCGGCAACGUCCUCAACCUCCAAUGCAUCCCACCACAAGAUGAUGCCUGAAGAGCCUUGGUUUUUUG [C72G U106A], the “polymerase ribozyme fitness (log ratio)” value is reported as -0.511. For GACCAAUCUGCCCUCAGAGCUCGAGAACAUCUUCGGAUGCAGAGGAGGCAGGCUUCGGUGGCGCGAUAGCGUCAACGUCCUCAACCUCCAAUGCAUCCCACCACAUGAUGAUGCCUGAUGAGCCUUGGUUUUUUG [C72U A119U], the “polymerase ribozyme fitness (log ratio)” value was -0.327. In the case of GACCAAUCUGCCCUCAGAGCUCGAGAACAUCUUCGGAUGCAGAGGAGGCAGGCUUCGGUGGCGCGAUAGCGUCUACGUCCUCAACCUCCAAUGCAUCCCACCACAAGAUGAUGCCUGAAGAGCCUUAGUUUUUUG [C72U A74U U106A G127A], the “polymerase ribozyme fitness (log ratio)” value is reported as -1.68. With GACCAAUCUGCCCUCAGAGCUCGAGAACAUCUUCGGAUGCAGAGGAGGCAGGCUUCGGUGGCGCGAUAGCGGCAACGUCCGCAACCUCCAAUGCAUUCCACCACAUGAUGAUGCCUGAAGAGCCUUGGUUUUUUG [C72G U81G C97U] the “polymerase ribozyme fitness (log ratio)” value was -4.63. In the case of GACCAAUCUGCCCUCAGAGCUCGAGAACAUCUUCGGAUGCAGAGGAGGCAGGCUUCGGUGGCGCGAUAGCGUCAACGUCCUCAACCUCCAAUGCAUCCUACCACAUGAUGAUGCCUGAUGAGCCUUGGUUUUUUG [C72U C99U A119U], the “polymerase ribozyme fitness (log ratio)” value is reported as -3.8. For GACCAAUCUGCCCUCAGAGCUCGAGAACAUCUUCGGAUGCAGAGGAGGCAGGCUUCGGUGGCGCGAUAGCGUCAACGUCCUCAACUUCCAAUGCAUCCCACCACAUUAUGAUUCCUGAAGAGCCUUGGUUUUUUG [C72U C86U G107U G113U], the “polymerase ribozyme fitness (log ratio)” value was -6.11. With GACCAAUCUGCCCUCAGAGCUCGAGAACAUCUUCGGAUGCAGAGGAGGCAGGCUUCGGUGGCGCGAUAGCGUCAACGUACUCGACCUCCAAUGCAUCCCACCACAUGAUGAUGCGUGAAGAGACUUGGUUGUUUG [C72U C79A A83G C115G C123A U131G] the “polymerase ribozyme fitness (log ratio)” value was -4.99. In the case of GACCAAUCUGCCCUCAGAGCUCGAGAACAUCUUCGGAUGCAGAGGAGGCAGGCUUCGGUGGCGCGAUAGCGUCAACGUCCUCAACCUCCAAUGCAUCCCACCACGUGAUGAUGCCUGAAGAGCCUUGGUUUUUUG [C72U A105G], the “polymerase ribozyme fitness (log ratio)” value is reported as -3.04. For GACCAAUCUGCCCUCAGAGCUCGAGAACAUCUUCGGAUGCAGAGGAGGCAGGCUUCGGUGGCGCGAUAGCGUCAACGUCCUCAACCUCCAAUGCAUUCCACCACACGGUGAUGCCUGAAGAGCCUUGGUUUUUUG [C72U C97U U106C A108G], the “polymerase ribozyme fitness (log ratio)” value was -6.08. With GACCAAUCUGCCCUCAGAGCUCGAGAACAUCUUCGGAUGCAGAGGAGGCAGGCUUCGGUGGCGCGAUAGCGUCAACGUCCUCAACCUCCAAUGAAUCCCACCACAUGAUGAUGCCUGAAGAGCCUUGGUUUUUUG [C72U C94A] the “polymerase ribozyme fitness (log ratio)” value was -1.26. With GACCAAUCUGCCCUCAGAGCUCGAGAACAUCUUCGGAUGCAGAGGAGGCAGGCUUCGGUGGCGCGAUAGCGUCACCGUCCUCAACCUCCAAUGCAUCCCACCACAUGAUGAUGCCUGUAUAGCCUUGGUUUUUUG [C72U A75C A118U G120U] the “polymerase ribozyme fitness (log ratio)” value was -0.721. With GACCAAUCUGCCCUCAGAGCUCGAGAACAUCUUCGGAUGCAGAGGAGGCAGGCUUCGGUGGCGCGAUAGCGUCAUCGUCCUCAACCUCCAAUGCAUCCCACCACAUGAUGAUGACUGAAGACCCUUGGUUUUUUG [C72U A75U C114A G122C] the “polymerase ribozyme fitness (log ratio)” value was -2.52. With GACCAAUCUGCCCUCAGAGCUCGAGAACAUCUUCGGAUGCAGAGGAGGCAGGCUUCGGUGGCGCGAUAGCGUCAACGUCCUCCACCUCCAAUGCAUCCCACCACAUGAUGAUGCGUGAAGAGCCUUGGUUUUUUG [C72U A83C C115G] the “polymerase ribozyme fitness (log ratio)” value was -1.78. With GACCAAUCUGCCCUCAGAGCUCGAGAACAUCUUCGGAUGCAGAGGAGGCAGGCUUCGGUGGCGCGAUAGCGGCAACGUCCUCAACCUCCAACGCAUCCCACCACAUGAUGAUGCCUGAAGAGCCUUGGUUUUUUG [C72G U92C] the “polymerase ribozyme fitness (log ratio)” value was -1.36. For GACCAAUCUGCCCUCAGAGCUCGAGAACAUCUUCGGAUGCAGAGGAGGCAGGCUUCGGUGGCGCGAUAGCGUCAACGUCCUCAACUUCCAAUGCAUCCCACCACAUGAUGAUGCCUGAAGAGCCUGGGUUUUUUG [C72U C86U U126G], the “polymerase ribozyme fitness (log ratio)” value was -2.65. With GACCAAUCUGCCCUCAGAGCUCGAGAACAUCUUCGGAUGCAGAGGAGGCAGGCUUCGGUGGCGCGAUAGCGUCAACGUCCUCAACAUCCAAUGCAUCCCACCCCAUGAUGAUGCCUGAAGAGCCUUGGUUUUUUG [C72U C86A A103C] the “polymerase ribozyme fitness (log ratio)” value was -5.58. For GACCAAUCUGCCCUCAGAGCUCGAGAACAUCUUCGGAUGCAGAGGAGGCAGGCUUCGGUGGCGCGAUAGCGGCAACGUCCUCAACCACCAAUGCAUCCCACCACAUGAUGAUGCCUGAAGAGCCUUGGUUUUUUG [C72G U87A], the “polymerase ribozyme fitness (log ratio)” value was -2.08. With GACCAAUCUGCCCUCAGAGCUCGAGAACAUCUUCGGAUGCAGAGGAGGCAGGCUUCGGUGGCGCGAUAGCGUCAACGUCCUCAACCUCCAAUGCAUCUCACCACAUGAUGAUGCCUGAAGAGCCUUGGUUUUUUG [C72U C98U] the “polymerase ribozyme fitness (log ratio)” value was -1.53. With GACCAAUCUGCCCUCAGAGCUCGAGAACAUCUUCGGAUGCAGAGGAGGCAGGCUUCGGUGGCGCGAUAGCGGCAACGUCCUCAACCUCCAAUGCAUCCCACCACAUGAUGAUGCCUGAAGAGCCUGGGUUUUUUG [C72G U126G] the “polymerase ribozyme fitness (log ratio)” value was -2.09.
